Holding throughout (assay): flow cytometry on cells
(In general: Flow cytometry measures light scatter and fluorescence of single cells or particles in a stream.)

For experiment [1], the target named is MHV-A59 S protein R20A (mouse hepatitis virus A59).
In experiment [2] the target is MHV-A59 S protein Y15A/L160A (mouse hepatitis virus A59).
Experiment [3] deals with MHV-A59 S protein I22A (mouse hepatitis virus A59).

Where only a bound is given, the exact number is not on record here.

Turning to soluble receptor mCEACAM1a[1,4], the reduction of receptor binding against WT in experiment [1] is 61%; in experiment [2] it was above 65%; in experiment [3], 83%.

The values above are taken from publication PMC6798120.
